Assay results reported in the nanobody polyreactivity screen of Harvey et al. (2022).

Assay: yeast display, Sf9 membrane polyspecificity reagent, FACS + sequencing; frameworks hold sequencing errors
In short: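 In a synthetic yeast display library (Saccharomyces cerevisiae BJ5465), nanobody expression was induced with galactose for 36–48 hours. FACS gates were set low and high (top ~1%) using anti-HA fluorescence for expression and streptavidin fluorescence for binding of the Sf9 membrane reagent. Each polyreactivity label is drawn from the gate of origin.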

Sequence | polyreactivity (PSR sort gate)
QVQLVESGGGLVQAGGSLRLSSAAYGRTFRPYAMGWYRQAPGKERELVAAIDSSGTSTYYADSVKGRFTISLDNAKNTVYLQMNSLKPEDTAVYYCAAGSDPTGRRYDYWGQGTQVTVSS | low polyreactivity
QVQLVESGGGLVQAGGSHRLSCAASGFTFVTYAMGWYRQAPGKERELVATISWGGGGTYYADSVKGRFTMSRDNAKNTVYFQLNSLKPEDTAVYYCAADNCYHYNFDYWGQGTQVTVSS | low polyreactivity
QDQLVESGGGLVQAGGSLRLSCAASGVTFVTYAMGGSRQAPGKERELVAAITTGGSTNYADSVKGRFTISRDNAKNTVYLQMNSLKPEDTAVYYCAAQRVSVLLFVRHDYWGQGTQVTVSS | low polyreactivity
QVQLVESARGLVQAGGSLRLRCAASGSTLSVYVMGWYRQAPGKERELVAAITRGGSTNYADSVKGRFTISRDNAKNTVYLQINSLNPEDTAVYYCAARSFVYYHHGEGSRSGRYYYWGQGTQVTVSS | high polyreactivity
QVQLVESGGVLVQAGGSLRLSCAASGYIFYPYAMGWYRQAPGKERELVAAISGSGSGTYYADSVKGRFTISRDNAKNTVYLQMNSLKPEDTAVYYCAKYLYDNVWMDYWGQGTQVTVSS | low polyreactivity
QVQLVESGGGLVQAGGSLRLSCAASGRTFYPYAMGWYRQAPGKERELVAAINRRGGSTYYADSVKGRFTISRDNAKNTVYLQMNSLKPEDTAVYYCAAKTTTPYRYIYYYWGQGTQVTVSS | high polyreactivity
QVQLVESGGGLVQAGGSLRLSCAASGSTFAYYAMGLYRQAPGKERELVASISWRGGSTYYADSVKGRFTISRDNAKNTVYLQMNSLKPEVTAVYYCAAGRFYKWSRSQEYDYWGQGTQVTVSS | low polyreactivity
QVQLVESGGGLVQAGGSLRLSCAASGSIFGYYVMGWYRPAPGKERELVAAITRSGSTYYADSVKGRFTISRDNAKNTVYLQMNSLKPEDTAGYYCAADGSYYWYPHTTYDYWGQGTQVTVSS | low polyreactivity
QVQLVESGGGLVQAGGSLRLSCAASGRIITYYAMGWYRQAPGKERELVAVISSVGGTYYADSVKGRFTISRDNAKNTVYLQMNSLKPEDTAVYYCAVGKIWSRRSSTSRFGYWGQGTQVTVSS | high polyreactivity
QVQLVESGGGLVQAGGSLRLSWAASGSIFGWYGMGWYSPAPGKERELVAAITRGGSTYYADSVKGRFTISRDNAKNTVYLQMNSLKPEDTAGYYCAKRSGQQYGGYGYWGQGTQVTVSS | low polyreactivity
QVQLVESGGGLVQAGGSLRLSCAASGLTFQYYAMGWYRQAPGKERELVATISGRAGRTYYADSVKGRFTISRDNAKNTVYLQMNSLKPEDTAVYYCAAEVDYSLYTWYEYYYWGQGTQVTVSS | high polyreactivity
QFQLVESGVGLVQAGGSLRLSCAASGRTSGSYAMGWYRQAPGKERELVAVITTSDGSTYYADSVKGRFTISRDNAKNTVYLQMNSLKPEDTEVYYCNVDYPNLWYDSYYYWGQGTEVTVSS | low polyreactivity
QVQLVESGGGLVQAGGSLRLSCAASGITIKRYAMVWYSQAHGKEREFVATISQSGTSTYYADSVKGRFTISRDNAKNTVYLQMNSLKPEDTAVYYCAADYIGYWYGYYSWGQGTKVTVSS | low polyreactivity
QVQLVESGGGLVQAGGSLRLSCAASGRTFSRNAMGWYRQAPGKERELVATISSSGVRTYYADSVKGRFTISRDNAKNTVYLQMNSLKPEDTAVYYCAAAWRYYSAASGYDYWGQGTQVTVSS | low polyreactivity
QVQLVESGGGLVQAGGSLRLRCAASGSIFGAYAMAWYRQAPGKERELVAAINSDISTNYADSVKGRFTISRDNAKNTVYFQMTSVKPEDTAVYYCGVDWPRIYLRYNYWGQGTAVTVSS | low polyreactivity
QVQLVESGGGLVQAGGSLRLSCAASGITFPLYAMGWYRQAPGKETELVASITRGGTTNYADSVKGRFTISRDNAKNTVYLQMNRLKPEDTAVYYCAAEVTRDRGFDYWGQGTQVTVSS | low polyreactivity
QVQHVESGGGLVQAGGSLRLSCAASGRIISYNAMGWYRQAPGKERELVAAISWGGGSTYYADSVKGRFTISRDNAKNTVYLQMNSLKPEDTAVYYCAKGWYRIKRNDYWGQGTQVTVSS | low polyreactivity
QVQLVESGGGLVQAGGSLRLSCAASGSTFGTYAMGWYRQAPGKERELVASIDNSTSGTYYADSVKGRFTISRDNAKNTVYLQMNSLKPEDTAVYYCAATPLVDGSSIPREGDYWGQGTQVTVSS | low polyreactivity
QVQLVESGGGLVQAGGRLRLSCAASGLIILRYTMGWYRQAPGKERELVAVITSGGRTYYADSVKGRFTISRDNAKNTVYLQMNSLKPEDTAVYYCAASVGLRTSFTGGGYWGQGTQVTVSS | high polyreactivity
QVQLVESGGGLVQEGGSLRLSCAASGFIFFLNAMGWYRQAPGKERELVAAISSSGGRTYYADSVKGRFTISRDNAKITVYLQMNSLKTEVTAVYYCNAVTLYRSRTDGYWGQGTQVTVSS | high polyreactivity
QVQLVESGGGLVQAGGSLRLSCAASGLIFYRYTMGWYRQAPGKERELVAAITRSGSTYYADSVKGRFTISRDNAKNTVYLQMNSLKPEDTAVYYCAADVTLYYRGRRYYYWGQGTQVTVSS | high polyreactivity
QVQLVESGGGLVQAGGSLRLSCAASGFIFTYNAMGWYRQAPGKETEFVASISRSGGRTYYADSVKGRFTISRDNAKNTVYLQMNSLKPEDTAVYYCAARNAYVYGMDYWGHGTQVTVSS | low polyreactivity

Sequence | polyreactivity (PSR sort gate)
QVQLVESGGGLVQAGGSLRLSCAASGLIFPRYAMGWYRQAPGKERELVAAITRGGSTYYADSVKGRFTISRDNAKNTVYLQMNSLKPEDTAVYYCNAELPVHWSWYDYWGQGTQVTVSS | low polyreactivity
QVQLVESGGGLVQAGGSLRLSCAASGRTLARNAMGWDIQGPGKERELVASINGRTTRTYYADSVKGRFTISRDNAKNTVYLQMNSLKPEDTAVYYCAAERKNKYDYWGQGTQVTVSS | high polyreactivity
QVQLVESGGGLVQAGGSLRLSCAASGSTFKWYAMGWYRQAPGKERELVAAINWSSGRTYYADSVKGRFTISRDNAKNTVYLQMNSLKPEDTAVYYCAAEAGYFSWRTMDYWGQGTQVTVSS | high polyreactivity
QVQLVESGGGLVQAGGSLRLSCAASGLTIWRYAMGWYRQAPGKEREFVATISQNGGRTYYADSVKGRFTISRDNAKNTVYLQMNSLKPEVNAVYYCAADDWRWGYDYWGQGTQVTVSS | high polyreactivity
QVQLVESGGGIVQAGGSLRLSCAASGSIFVHNDMGWYRQAPGKERELVARINTGGGTNYADSVKGRFTISRDNAKNTVYLEMNSLKPEDTAVYYCATDGDRYDHYFTDPEFDYWGQGTQVTVSS | low polyreactivity
QVQLVESGGPLVQSGGSLRIICPASGSTFRYYSMGWYRQAPGKERELVAAISYGGGITNYADSVKGRLTISRDNAKNTVYLQMNSLKPEDTAVYYCAAYDRITRYDYWGQGTQVTVSS | high polyreactivity
QVQLVASGGGLVQAGGSLLLSCAASGRIFAEYAMGWSRQAPGKERELVAVIDGTGGSTYYADSVKGRFTISRDNEKNTVYLLMNSLNPEDTAVYYCAATGRGSGRRFNYWGQGTQVTVSS | high polyreactivity
QVQLVESGGGLVQAGGSLRLSCAASGIIFTQYAMGLYRQAPGKERELVAAISGSGGRTYYADSVKGRFTISRDIAKNTVYLQMNSLKPEDTAVYYCAARYARYGNDYWGQGTQVTVSS | high polyreactivity
QVQLVESGGGLVQAGGSLRLSCAASGFIFTGYTMGWYRQAPGKERELVARISSGDSTKYADSVKGRFTISRDNAKNTVYLQMNSLKPEDTAVYYCAATTGYTARWRNRYIYYYWGQGTQVTVSS | high polyreactivity
QVQLVESGGGLVQAGGSLRLSCAASGFIFGTYAMGWYRQAPGKERELVAAISQSGGRTYYADSVKGRFTISRDNAKNTVYLQMISLKPEDTAVYYCAARHRPTGISTGYDYWGQGTQVTVSS | high polyreactivity
QVQLGESGVGLVQAGGSLRLSCASSGRTLPVNAMGWYRQAPGKERELVAGISWGGDSTYYADSVKGRFTISRDNAKNSVYLQMNSLKPEDTAVYYCAASSSTWPGDFWGQGTQVTVSS | low polyreactivity
QVQLVESGGGLVQAGGSLRLSCAASGFIFGGYAMGWYRQAPGKERELVAAITGGGTTYYADSVKGRFTISRDNAKNTVYLQMNSLKPEDTAVYYCAAAYRLGYHKYYYWGQGTQVTVSS | high polyreactivity
QVQLVESGGGLVQAGGSLRLSCAASGITFGRYALGWYRQAPGKERELVATITVNGGRTYYADSVKGRFTISRDNAKNTVYLQMNSLKPEDTAVYYCAAERRNSYVLLFKYNYWGQGTQVTVSS | low polyreactivity
QVQLVESGGGLVQAGGSLRLSCAASGFTFWRNTMGWSRQAPGKERELVAAIDRSGSSTYYADSEKGRFTISRDNATNTVYLQMNSLKPEDTAVYYCAAAHTYFTPYGDYWGQGTQVTVSS | low polyreactivity
QGQLVESGGGLVQAGGSLRLSCDASGRIFRKYDMGWYRQAPGKERELVAAISGTGITYYADSVKGRFTISRDNANNTVYLQMNSLKPEDTAVYYCARGSKPRALSWADPSATSIYDYWGQGTQVTVSS | low polyreactivity
QVQLVESGGGLVQAGGSLRLSCAASGLIFIRYAMGWYRQAPGKERELVAAISWPGGNTYYADSVKGRFTISRDNAKNTVYLQMNSLKPEDTAVYYCAAVGTWQHRSYGYWGQGTQVTVSS | high polyreactivity
QVQHVESGGGLVQAGCSLRLSCAASGFTFYSYAMGWYSQTPGKERELVASISRTGGGTYYADSVKGSFTISRDNAKNTVSLQMNSLIPVDTAVYYCNASPNIRVRYYYRKYDYWGQGTQVTVSS | high polyreactivity
QVQLVESGGGLVQAGGSLRLSCAASGSIFTANAMGWYRQAPGKERELVAAISRSGGRTYYADSVKGRFTISRDNAKNTVYLQMNSLKPEDTAVYYCNVGRFNTSGYDYWGQGTQVTVSS | high polyreactivity
QVQLVESGGGLVQPGGSLRISCAASGFTFVYYVMGWYRQAPGKERELVAAINAGGGSTYYADSVKGRFTISRDNAKNTVYLQMNSLKPEDTAVYFCNARVRVRLGRNWSSYYYWGQGTEVTVSS | high polyreactivity
QVQLVESGGGLVQAGGSLRLTCAASGSIFYAYAMGWYRQAPGKERELVAGITFSDDSTYYADSVKGRFTISRDNAKNTVYLQMNSLKPEDTAVYYCAADTISWYGNYYYWGQGTQVTVSS | high polyreactivity
QVQLVESGGGLVQAGGSLRLSCSASGSTFERYAMGWYRQAPGKERELVAAISAIGDSTYYADSVKGRFTISRDNANNTVYLQMNSLKPEDTAVYYCAAKTSDYGYYYWGQGTQVTVSS | high polyreactivity
